Measured values from PMC6202814.

Tests used:
purified protein [1] = substrate: O=C[C@@H](O)CO; assay: purified protein; conditions: donor DHAP 60 mM, 50 mM TEA pH 7.5, 25 °C, apparent
purified protein [2] = substrate: O=C(CO)CO; assay: purified protein; conditions: acceptor varied 2-80 mM, donor DHAP 60 mM, 50 mM TEA pH 7.5, 25 °C, apparent

B1: L-rhamnulose-1-phosphate aldolase (RhaD) (Escherichia coli K-12) (protein)
chain: MQNITQSWFVQGMIKATTDAWLKGWDERNGGNLTLRLDDADIAPYHDNFHQQPRYIPLSQPMPLLANTPFIVTGSGKFFRNVQLDPAANLGIVKVDSDGAGYHILWGLTNEAVPTSELPAHFLSHCERIKATNGKDRVIMHCHATNLIALTYVLENDTAVFTRQLWEGSTECLVVFPDGVGILPWMVPGTDEIGQATAQEMQKHSLVLWPFHGVFGSGPTLDETFGLIDTAEKSAQVLVKVYSMGGMKQTISREELIALGKRFGVTPLASALAL
For B1, the Km (purified protein [1]; acceptor varied 0.2-60 mM) was 40.8 ± 5.8 mM, the Vmax (purified protein [1]; acceptor varied 0.2-60 mM) was 4.3 µmol/min/mg and the kcat (purified protein [1]; acceptor varied 0.2-60 mM) was 20.5 s⁻¹. For the same protein, the kcat/Km (purified protein [1]; acceptor varied 0.2-60 mM) was 500 M⁻¹ s⁻¹, the Km (purified protein [2]) was 23.4 ± 9.69 mM and the Vmax (purified protein [2]) was 0.86 µmol/min/mg. The kcat (purified protein [2]) was 4.1 s⁻¹ and the kcat/Km (purified protein [2]) was 180 M⁻¹ s⁻¹.

B2: L-fuculose-1-phosphate aldolase (FucA) (Escherichia coli K-12) (protein)
chain: MERNKLARQIIDTCLEMTRLGLNQGTAGNVSVRYQDGMLITPTGIPYEKLTESHIVFIDGNGKHEEGKLPSSEWRFHMAAYQSRPDANAVVHNHAVHCTAVSILNRSIPAIHYMIAAAGGNSIPCAPYATFGTRELSEHVALALKNRKATLLQHHGLIACEVNLEKALWLAHEVEVLAQLYLTTLAITDPVPVLSDEEIAVVLEKFKTYGLRIEE
B2 gave a Km (purified protein [1]; acceptor varied 0.5-60 mM) of 54.1 ± 3.6 mM, a Vmax (purified protein [1]; acceptor varied 0.5-60 mM) of 1.5 µmol/min/mg and a kcat (purified protein [1]; acceptor varied 0.5-60 mM) of 5 s⁻¹. The kcat/Km (purified protein [1]; acceptor varied 0.5-60 mM) was 92 M⁻¹ s⁻¹.
